Data published in the supplement of paper PMC10567573.

B1: NFE2L1 (parent)
chain: TLDGYGIHPKSIDLDNYFTARRLL

Variants of: B1
Test: protein stability index of a GFP-peptide fusion (GPS, HEK-293T) (PSI 1-6); higher = more stable
Details: c terminus: a fixed tail appended
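Also: lentivirally expressed fusions sorted by FACS into six bins by GFP to DsRed ratio, PSI derived from sequencing read proportions per bin multiplied by bin number.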

Variant | protein stability index
TLDGYGIHIKSIDLDNYFTARRLL [P9I] | 2.39
TLDGYGIHWKSIDLDNYFTARRLL [P9W] | 2.16
TLDGYGIHAKSIDLDNYFTARRLL [P9A] | 1.68
TLDGYGIHFKSIDLDNYFTARRLL [P9F] | 1.55
TLDGYGIHHKSIDLDNYFTARRLL [P9H] | 2.14
TLDGYGIHDKSIDLDNYFTARRLL [P9D] | 1.88
TLDGYGIHMKSIDLDNYFTARRLL [P9M] | 2.05
TLDGYGIHKKSIDLDNYFTARRLL [P9K] | 2.24
TLDGYGIHTKSIDLDNYFTARRLL [P9T] | 1.95
TLDGYGIHRKSIDLDNYFTARRLL [P9R] | 2.22
TLDGYGIHYKSIDLDNYFTARRLL [P9Y] | 1.68
TLDGYGIHLKSIDLDNYFTARRLL [P9L] | 2.7
TLDGYGIHQKSIDLDNYFTARRLL [P9Q] | 2.08
TLDGYGIHGKSIDLDNYFTARRLL [P9G] | 1.91
TLDGYGIHSKSIDLDNYFTARRLL [P9S] | 1.71
TLDGYGIHVKSIDLDNYFTARRLL [P9V] | 1.5
TLDGYGIHEKSIDLDNYFTARRLL [P9E] | 1.97
TLDGYGIHNKSIDLDNYFTARRLL [P9N] | 2.66
TLDGYGIHCKSIDLDNYFTARRLL [P9C] | 1.62
TLDGYGIHPKCIDLDNYFTARRLL [S11C] | 1.98
TLDGYGIHPKEIDLDNYFTARRLL [S11E] | 2.28
TLDGYGIHPKGIDLDNYFTARRLL [S11G] | 1.91
TLDGYGIHPKHIDLDNYFTARRLL [S11H] | 1.89
TLDGYGIHPKDIDLDNYFTARRLL [S11D] | 2.38

Variant | protein stability index
TLDGYGIHPKPIDLDNYFTARRLL [S11P] | 2.04
TLDGYGIHPKQIDLDNYFTARRLL [S11Q] | 1.89
TLDGYGIHPKIIDLDNYFTARRLL [S11I] | 1.4
TLDGYGIHPKRIDLDNYFTARRLL [S11R] | 1.97
TLDGYGIHPKTIDLDNYFTARRLL [S11T] | 1.97
TLDGYGIHPKMIDLDNYFTARRLL [S11M] | 1.57
TLDGYGIHPKNIDLDNYFTARRLL [S11N] | 2.19
TLDGYGIHPKFIDLDNYFTARRLL [S11F] | 2.29
TLDGYGIHPKLIDLDNYFTARRLL [S11L] | 2
TLDGYGIHPKYIDLDNYFTARRLL [S11Y] | 1.67
TLDGYGIHPKVIDLDNYFTARRLL [S11V] | 2.49
TLDGYGIHPKWIDLDNYFTARRLL [S11W] | 1.67
TLDGYGIHPKAIDLDNYFTARRLL [S11A] | 1.49
TLDGYGIHPKKIDLDNYFTARRLL [S11K] | 2.58
TLDGYSIHPKSIDLDNYFTARRLL [G6S] | 1.62
TLDGYLIHPKSIDLDNYFTARRLL [G6L] | 1.59
TLDGYWIHPKSIDLDNYFTARRLL [G6W] | 1.54
TLDGYFIHPKSIDLDNYFTARRLL [G6F] | 2.69
TLDGYTIHPKSIDLDNYFTARRLL [G6T] | 1.83
TLDGYAIHPKSIDLDNYFTARRLL [G6A] | 2.26
TLDGYMIHPKSIDLDNYFTARRLL [G6M] | 1.83
TLDGYYIHPKSIDLDNYFTARRLL [G6Y] | 1.71
TLDGYDIHPKSIDLDNYFTARRLL [G6D] | 1.54
TLDGYPIHPKSIDLDNYFTARRLL [G6P] | 1.76

Variant | protein stability index
TLDGYIIHPKSIDLDNYFTARRLL [G6I] | 1.58
TLDGYQIHPKSIDLDNYFTARRLL [G6Q] | 1.94
TLDGYRIHPKSIDLDNYFTARRLL [G6R] | 1.87
TLDGYHIHPKSIDLDNYFTARRLL [G6H] | 1.97
TLDGYNIHPKSIDLDNYFTARRLL [G6N] | 2.21
TLDGYEIHPKSIDLDNYFTARRLL [G6E] | 2.02
TLDGYCIHPKSIDLDNYFTARRLL [G6C] | 1.48
TLDGYKIHPKSIDLDNYFTARRLL [G6K] | 1.91
TLDGYVIHPKSIDLDNYFTARRLL [G6V] | 2.25
TLDGYGIHPSSIDLDNYFTARRLL [K10S] | 2.22
TLDGYGIHPQSIDLDNYFTARRLL [K10Q] | 2.12
TLDGYGIHPVSIDLDNYFTARRLL [K10V] | 1.5
TLDGYGIHPASIDLDNYFTARRLL [K10A] | 1.79
TLDGYGIHPNSIDLDNYFTARRLL [K10N] | 2.44
TLDGYGIHPTSIDLDNYFTARRLL [K10T] | 1.94
TLDGYGIHPESIDLDNYFTARRLL [K10E] | 1.65
TLDGYGIHPMSIDLDNYFTARRLL [K10M] | 1.88
TLDGYGIHPGSIDLDNYFTARRLL [K10G] | 1.93
TLDGYGIHPRSIDLDNYFTARRLL [K10R] | 2.11
TLDGYGIHPISIDLDNYFTARRLL [K10I] | 1.94
TLDGYGIHPWSIDLDNYFTARRLL [K10W] | 2.24
TLDGYGIHPCSIDLDNYFTARRLL [K10C] | 2.54
TLDGYGIHPYSIDLDNYFTARRLL [K10Y] | 1.39
TLDGYGIHPPSIDLDNYFTARRLL [K10P] | 1.73

Variant | protein stability index
TLDGYGIHPHSIDLDNYFTARRLL [K10H] | 2.2
TLDGYGIHPLSIDLDNYFTARRLL [K10L] | 2.01
TLDGYGIHPFSIDLDNYFTARRLL [K10F] | 1.87
TLDGYGIHPDSIDLDNYFTARRLL [K10D] | 2.37
TLDSYGIHPKSIDLDNYFTARRLL [G4S] | 2.13
TLDYYGIHPKSIDLDNYFTARRLL [G4Y] | 1.5
TLDTYGIHPKSIDLDNYFTARRLL [G4T] | 1.55
TLDQYGIHPKSIDLDNYFTARRLL [G4Q] | 1.75
TLDRYGIHPKSIDLDNYFTARRLL [G4R] | 1.95
TLDVYGIHPKSIDLDNYFTARRLL [G4V] | 1.22
TLDWYGIHPKSIDLDNYFTARRLL [G4W] | 1.91
TLDGYGIGPKSIDLDNYFTARRLL [H8G] | 1.75
TLDGYGIQPKSIDLDNYFTARRLL [H8Q] | 1.79
TLDGYGIVPKSIDLDNYFTARRLL [H8V] | 2.28
TLDGYGIWPKSIDLDNYFTARRLL [H8W] | 1.66
TLDGYGIDPKSIDLDNYFTARRLL [H8D] | 2.02
TLDGYGITPKSIDLDNYFTARRLL [H8T] | 2.05
TLDGYGIKPKSIDLDNYFTARRLL [H8K] | 2.07
TLDGYGIRPKSIDLDNYFTARRLL [H8R] | 1.55
TLDGYGINPKSIDLDNYFTARRLL [H8N] | 1.78
TLDGYGIPPKSIDLDNYFTARRLL [H8P] | 1.94
TLDGYGISPKSIDLDNYFTARRLL [H8S] | 1.81
